Measured values from patent US20220154221, “SITE SPECIFIC RECOMBINASE INTEGRASE VARIANTS AND USES THEREOF IN GENE EDITING IN EUKARYOTIC CELLS” (RAMOT AT TEL-AVIV UNIVERSITY LTD., published 2022).
Substitutions are numbered along the chain they refer to.

T1: HK022 Int E174K+I43F+R319G (Bacteriophage HK022, UniProt P16407 SEQ:1-357, I43F,E174K,R319G)
T1 sequence: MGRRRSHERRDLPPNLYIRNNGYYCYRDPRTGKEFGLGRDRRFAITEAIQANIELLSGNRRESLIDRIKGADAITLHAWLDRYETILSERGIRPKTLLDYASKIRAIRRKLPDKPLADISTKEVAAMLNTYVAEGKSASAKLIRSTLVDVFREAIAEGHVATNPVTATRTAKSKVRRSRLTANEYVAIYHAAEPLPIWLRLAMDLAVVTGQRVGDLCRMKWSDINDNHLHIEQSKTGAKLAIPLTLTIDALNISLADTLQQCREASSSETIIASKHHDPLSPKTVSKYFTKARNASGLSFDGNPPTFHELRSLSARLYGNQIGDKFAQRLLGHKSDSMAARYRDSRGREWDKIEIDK

T2: HK022 Int E174K+D278K (Bacteriophage HK022, UniProt P16407 SEQ:1-357, E174K,D278K)
T2 sequence: T1 sequence with F43I, D278K, G319R

T3: HK022 Int E174K (Bacteriophage HK022, UniProt P16407 SEQ:1-357, E174K)
T3 sequence: T1 sequence with F43I, G319R

T4: HK022 integrase (oInt / wild type) (Bacteriophage HK022, UniProt P16407 SEQ:1-357)
T4 sequence: T1 sequence with F43I, K174E, G319R

T5: HK022 Int D278K (Bacteriophage HK022, UniProt P16407 SEQ:1-357, D278K)
T5 sequence: T1 sequence with F43I, K174E, D278K, G319R

B1: DMD2 attB (dsDNA)
DNA 1: TTGCTTAATGGAGAAAAGGTA
DNA 2: TACCTTTTCTCCATTAAGCAA
B2: wild-type attB (dsDNA)
DNA 1: GCACTTTAGGTGAAAAAGGTT
DNA 2: AACCTTTTTCACCTAAAGTGC
B3: DMD3 attB (dsDNA)
DNA 1: GTGCTTTAAAAAGAAAAGGGG
DNA 2: CCCCTTTTCTTTTTAAAGCAC

Key:
[1] = target: T1, HK022 Int E174K+I43F+R319G; experiment: cell_activity; genomic RMCE at DMD2/DMD3, HEK293; conditions: chain copies: 4
Description: (§1) Plasmid transformations were performed by electroporation (Sambrook, J., et al (1989) Cold Spring Harbor, N.Y.). Plasmids and oligomers are listed in Tables 1,3,5 and 2,4,6 respectively. Human embryonic kidney cells HEK293, 293T, and 293 Flp-In were cultured in Dulbecco's modified Eagle's medium (DMEM). For transient transfection 293T cells (˜6×10⁵) were plated in a 6 well plate and 24 h later treated with 3 μg of the proper plasmid DNA using PureFection Transfection Reagent (System Biosciences, Mountain View, Calif., USA). For the model chromosomal assay transfection, 293 Flp-In cells (˜6×10⁵) were plated in a 6 well plate and 24 h later treated with 5.5 μg of the proper plasmid DNA using Mirus Transfection Reagent (Mirus, Wis., USA). For the CTNS and DMD chromosomal assay transfection, HEK293 cells (˜6×10⁵) were plated in a 6 well plate and 24 h later treated with 3 μg of the proper plasmid DNA using PureFection Transfection Reagent.
(§2) In the DMD model, DMD2 and DMD3 “attB” sites were chosen which are 23 Kb apart located in introns 43 and 44 respectively that flank exon 44 (FIG. 12B). The relevant deletion mutation located in exon 44 is described (GM23715, Coriell institute). A GFP promoter trap whose incoming plasmid carried a splicing acceptor (SA), a ribosomal skipping site (2A) and the ORF of EGFP with a polyA sequence (FIG. 12A) was used. All are flanked with the two relevant “attP”s 1.4 Kb apart. […] The correct sequence of all PCR products was confirmed by NGS.

[2] = target: T2, HK022 Int E174K+D278K; experiment: cell_activity; genomic RMCE at DMD2/DMD3, HEK293; conditions: chain copies: 4
Description: as §1, §2

[3] = target: T3, HK022 Int E174K; experiment: cell_activity; trans attB x attP, HEK293T (Example 8 quotes 147%); conditions: chain copies: 4
Description: (§3) To examine the activity of these Int variants, an analytic assay was performed of a transient trans integrative recombination reaction using the wild type attB and attP sites in human HEK293T cells in which each att site is located on a different substrate plasmid (FIG. 2B). The first substrate (pMK221) carries the attP site downstream to the cytomegalovirus promoter (CMV). The second plasmid (pMK223) carries the attB downstream to the open reading frame (ORF) of the green fluorescent protein (GFP) and upstream to a transcription terminator (Stop).
(§4) A productive attB×attP reaction forms a dimer plasmid encoding CMV-promoted GFP expression (FIG. 2B). HEK293T cells were co-transfected with these two substrate plasmids, with or without an Int-expressing plasmid (the oInt pNA979, or one of its Int mutant derivatives). 48 hours post-transfection GFP expressing cells were analyzed by fluorescence-activated cell sorting (FACS).

[4] = target: T4, HK022 integrase (oInt / wild type); experiment: cell_activity; trans attB x attP integration, HEK293T, reference; conditions: tags: human codon-optimised (oInt) in human cells; native gene in E. coli; chain copies: 4
Description: as §3, §4

[5] = target: T5, HK022 Int D278K; experiment: cell_activity; trans attB x attP, HEK293T; conditions: chain copies: 4
Description: as §3, §4

[6] = target: T1, HK022 Int E174K+I43F+R319G; experiment: cell_activity; trans attB x attP, HEK293T; conditions: chain copies: 4
Description: as §3, §4

Binder	activity [1] [% cells]	activity [2] [% cells]	recombination activity (GFP+ cells, relative to oInt) [3]	integrative recombination activity [4]	integration activity [5]	integration activity [6]
B1	0.4	0.4				
B2			1.54 fold of oInt	1 fold of oInt	1.48 fold of oInt	2.3 fold of oInt
B3	0.4	0.4				
